Assay results from the supplement of paper PMC12764529.
± gives the half width of the 95% confidence interval.

Tests used:
[1] = folding stability dG unfold (combined trypsin and chymotrypsin); higher = more stable
Method in brief: (§1)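 Unfolding free energy was derived, per protease or combined, by relating Bayesian-fitted K50 values from sequencing counts to a sequence-predicted unfolded-state K50 and a shared folded-state K50. The underlying digests exposed cysteine-free mini-proteins under 80 residues, in a PA-tagged cDNA display construct, to trypsin and chymotrypsin at 11 threefold-diluted concentrations and to a no-protease condition. A filter kept only designs with AlphaFold2 dimer inter-PAE above 15.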

[2] = folding stability dG unfold from trypsin proteolysis; higher = more stable
Method in brief: as §1

[3] = folding stability dG unfold from chymotrypsin proteolysis; higher = more stable
Method in brief: as §1

Row | Sequence | folding stability dG unfold [1] | folding stability dG unfold [2] | folding stability dG unfold [3]
1 | SAGGMIPEELIRKLFEDGKPVPLEQIVELIEKLTGRPVRLEEGEDKFRIVVLDPDTPELLDEIEIDFSAGGS [r8_105_TrMRF] | 1.55 ± 0.091 kcal/mol | 1.43 ± 0.086 kcal/mol | 1.57 ± 0.028 kcal/mol
2 | SAGGSAGGSEKTLVTRTPDGYLLTLTEFTLPDGSKVTLATITFPNTGKTVTVPASLVPADATGSAGGSAGGS [r12_797_TrMRF] | 2.63 ± 0.041 kcal/mol | 1.45 ± 0.028 kcal/mol | 3.061 ± 0.011 kcal/mol
3 | SAGGSAGGKRKIEIHIIIPPGMPPEWRKKAIEIAKWFAKTLAQENNREVEIKIEIFVLDGMPPWSAGGSAGG [r6_204_TrROS] | 3.6 ± 0.33 kcal/mol | 2.82 ± 0.19 kcal/mol | 3.71 ± 0.076 kcal/mol
4 | SAGGSAGGSMKTVEIELVNKETGKKVTITVNDGKVTIRITNPDGEEKELEFPSLEEALEALLSSAGGSAGGS [r12_511_TrROS_Hall] | 2.19 ± 0.2 kcal/mol | 2.45 ± 0.14 kcal/mol | 1.93 ± 0.19 kcal/mol
5 | SALLEPLLLEVYIPATGEVITVPAKSLEEAEAIIAEVRADPTVASVRITLPDGTVVEVSFNVSPAAYLKSAG [r14_747_JUSTAS] | 0.304 ± 0.2 kcal/mol | 0.42 ± 0.12 kcal/mol | 0.13 ± 0.16 kcal/mol
6 | SKKKIEIEVIDLKTGKTETIEADTLEEALEEIKKNAPPGSTVIVRIKLPDGSVLEITLEIKPEKVTEKEKSA [r9_482_TrROS_Hall] | 1.21 ± 0.22 kcal/mol | 0.956 ± 0.074 kcal/mol | 1.37 ± 0.087 kcal/mol
7 | SAGGKKKKVVIKLPSTNKAVEAELVSVKKGKNKYYLEIKLPNGKKYKFPLEVIGDFKWDEGEGTLEVPSAGG [r13_211_TrMRF] | 2.66 ± 0.11 kcal/mol | 1.79 ± 0.047 kcal/mol | 2.98 ± 0.05 kcal/mol
8 | SAGGSAGGSGGKPLLIFTAMNGPEAEELVKKLLEEGGAGPIVAVVIPAPKDDPLFKEFFEKLKSAGGSAGGS [r12_649_TrMRF] | 1.34 ± 0.14 kcal/mol | 0.935 ± 0.073 kcal/mol | 1.47 ± 0.053 kcal/mol
9 | SAMRIVVPYRETLRLTGLPEDTPLEEFRERFERIFRRLMERGVRPVRIEIYEIGDERYIVVEIETPGGASAG [r14_158_TrMRF] | 3.62 ± 0.041 kcal/mol | 2.907 ± 0.019 kcal/mol | 4.042 ± 0.017 kcal/mol
10 | SSMTLVTVEMEITLRTPEGGSETLKRTFEREVSPDDPAAVEAAVEAAKEEIREAHPDVVEVRVVKVDTALSA [r9_436_JUSTAS] | 4.41 ± 0.046 kcal/mol | 4.06 ± 0.089 kcal/mol | 4.459 ± 0.039 kcal/mol
11 | SAGGSAGGSAGMKSTVTQPGDTWTITITDPETGEVTTYTLTPAQLGELAASSRPVAVAPGSAGGSAGGSAGG [r11_741_JUSTAS] | 1.24 ± 0.058 kcal/mol | 0.614 ± 0.053 kcal/mol | 1.5 ± 0.086 kcal/mol
12 | SAGGSMTMTVEIHYPDGTVETRTVPYAPDDPAAAIAAVKAEVEARGGEVLAVETRDGVVTVKALVPPSAGGS [r16_662_JUSTAS] | 2.72 ± 0.095 kcal/mol | 2.4 ± 0.07 kcal/mol | 3.01 ± 0.086 kcal/mol
13 | SAGGMTEVSVSEELRAEGGGLERVLVVTITTVTKVYPVGSSNKVEYEESTIVIPADDPAALEAAGVLLSAGG [r13_670_JUSTAS] | 0.257 ± 0.16 kcal/mol | 0.563 ± 0.07 kcal/mol | -0.319 ± 0.36 kcal/mol
14 | SMSYTVTVEYPDTGKTTTTPIPPDALEVSVSLSGPSTIRITITTDVNGATTTTTSTVTLPPPALPPSTLLSA [r9_1067_JUSTAS] | 1.06 ± 0.22 kcal/mol | 1.11 ± 0.097 kcal/mol | 0.927 ± 0.28 kcal/mol
15 | SAGGSAGGSASMKVLEFPPDASIEEILEKIEKELGLSKEEIKNIKIEKIDDEEGSYKVIIESAGGSAGGSAG [r3_26_JUSTAS] | 2.59 ± 0.07 kcal/mol | 2.42 ± 0.062 kcal/mol | 2.62 ± 0.054 kcal/mol
16 | SAGGSAKKKKGKKKKKIKKIKIKLKLPPGAEIVKIDKEKGVIYIRNKKTNKIYKIDLKTGKIVEIPSAGGSA [r15_452_TrROS_Hall] | 3.27 ± 0.39 kcal/mol | 1.86 ± 0.17 kcal/mol | 3.66 ± 0.26 kcal/mol

Row | Sequence | folding stability dG unfold [1] | folding stability dG unfold [2] | folding stability dG unfold [3]
17 | SAGGSAAKPGETVRVVVTVRVPPGATAEELKAALEALLGPDAEVTVEVFETPDTVVVVVEVRLPPASAGGSA [r15_749_TrROS_Hall] | 2.74 ± 0.19 kcal/mol | 2.65 ± 0.26 kcal/mol | 2.66 ± 0.11 kcal/mol
18 | SAGGSPPPLRITYKIRMGGQPFEWTIPIPADDLPPGQQIEIDIRIKKMDPENNRMRMEIDDVEVTPSAGGSA [r2_479_TrROS] | 0.76 ± 0.19 kcal/mol | -0.209 ± 0.32 kcal/mol | 0.979 ± 0.27 kcal/mol
19 | SAGMIKVEVVVPPEDPSKPPSEEELRALAEEVVRELGLDPAKHPIEIKREVVDPEKGVLRYTITVKLPSAGG [r19_244_JUSTAS] | 2.96 ± 0.11 kcal/mol | 3.09 ± 0.092 kcal/mol | 2.87 ± 0.069 kcal/mol
20 | SAGGSAGGYWMISVKIYDPEDGKPIAQMTFMFDSPEEAERIVEEIADALPPGYRVEVDIHPIPNSAGGSAGG [r6_690_TrROS] | 4.85 ± 0.16 kcal/mol | 3.82 ± 0.12 kcal/mol | 4.99 ± 0.14 kcal/mol
21 | SAGGSMTVVIVKLRPPDSPEVLYLPFRGRLPNGDWVPISLEELLEALEALPDLEVEEIIVAPPEEISAGGSA [r2_192_TrMRF] | 1.7 ± 0.23 kcal/mol | 1.73 ± 0.16 kcal/mol | 1.74 ± 0.087 kcal/mol
22 | SAGGSAGGSAGAKKLPPGQVALRIEPVTVTVTDEDGKERTVTRIRLVDAATGEEYEFTFPSAGGSAGGSAGG [r17_266_TrROS_Hall] | 0.744 ± 0.15 kcal/mol | 0.829 ± 0.1 kcal/mol | 0.531 ± 0.1 kcal/mol
23 | MMLIIKVKNKKTGKTETIKIDMSVEEIKNAIKELKKKNPNAKVTIIGVKTEEVRKALKEAGIEKIEVKPLPS [r1_114_TrROS_Hall] | 3.51 ± 0.31 kcal/mol | 3.01 ± 0.23 kcal/mol | 3.5 ± 0.22 kcal/mol
24 | SAGGVEEIVEKLPEEAEEVEITSEPHPLPGSTLTKYTIKAKNSATGKTKTYEVTVLYDPEGNVLEVLLSAGG [r13_358_JUSTAS] | 2.22 ± 0.19 kcal/mol | 1.7 ± 0.061 kcal/mol | 2.74 ± 0.082 kcal/mol
25 | SAGGSMKVKIEVEKTPKGYKVRITVEKDGKTYEFEFPEDMSLEEVLEKLKKELEKEGVEIEKIEIVSAGGSA [r2_497_TrROS_Hall] | 4.43 ± 0.26 kcal/mol | 3.15 ± 0.13 kcal/mol | 4.58 ± 0.15 kcal/mol
26 | SAGGSAGGSMDLKNAKIISIEETENEIKITIEVDGKLYTITISKEEAEKLKKLLEDLNIEIIPSAGGSAGGS [r12_604_TrROS_Hall] | 4.27 ± 0.14 kcal/mol | 4.14 ± 0.23 kcal/mol | 4.3 ± 0.079 kcal/mol
27 | SAGEATVEKLEDGYVVVFKDGSVAFLPAVPPAVPVVEIPFKDPEEGRRAVEELGADVLDIGDDSIVVAGSAG [r5_328_TrMRF] | -0.01 ± 0.1 kcal/mol | -1.19 ± 0.16 kcal/mol | 0.346 ± 0.033 kcal/mol
28 | SAGGSAGGSMKYLVTFPEGGPVPLPDGTSVALAPGAVLELETEEEAEALKALNPGRPVVITPVSAGGSAGGS [r12_987_JUSTAS] | 1.47 ± 0.05 kcal/mol | 1.51 ± 0.037 kcal/mol | 1.35 ± 0.03 kcal/mol
29 | SAGGMKVTRLPNALVFEYPLPNSTLRIVVTPGDGTYTLELYRDGKLIATFPSPGPVADLVEAAIKALSAGGS [r8_276_TrMRF] | 3.01 ± 0.073 kcal/mol | 2.55 ± 0.053 kcal/mol | 3.2 ± 0.033 kcal/mol
30 | SAGGSAGGSTAKEIADKLGFDNVEIKPTKPVEQRKDPNGKWRRQYVYTIKIRNPDGREWTIPISAGGSAGGS [r12_221_TrROS] | 0.528 ± 0.13 kcal/mol | 0.626 ± 0.093 kcal/mol | 0.449 ± 0.24 kcal/mol
31 | SAGGPPIKKIEITKIHPGKGIIQVSIKLPGDGHPIMVRAEIDDPEPGKIKIEIQDPNNGQPQEITIKFSAGG [r13_337_TrROS] | 1.1 ± 0.28 kcal/mol | 1.23 ± 0.094 kcal/mol | 0.683 ± 0.08 kcal/mol
